# Article doi:10.1101/2025.08.03.668247, “The structure of Egalitarian in complex with the K10 mRNA localization signal reveals a modular binding surface required for function”
# Key:
# [1] = molecular target: T1, GST-Egl512-819 (Drosophila melanogaster, UniProt Q9W1K4 512-819); assay: fluorescence anisotropy; FA: 20 mM HEPES-NaOH pH 7.5, 100 mM NaCl, 10% glycerol, 20 C, 10 nM FAM-RNA; competition: 150 nM Egl512-819 + 10 nM FAM-K10 TLS, same buffer; settings: protein: recombinant, tags: N-terminal GST (TEV site)
# T1 sequence: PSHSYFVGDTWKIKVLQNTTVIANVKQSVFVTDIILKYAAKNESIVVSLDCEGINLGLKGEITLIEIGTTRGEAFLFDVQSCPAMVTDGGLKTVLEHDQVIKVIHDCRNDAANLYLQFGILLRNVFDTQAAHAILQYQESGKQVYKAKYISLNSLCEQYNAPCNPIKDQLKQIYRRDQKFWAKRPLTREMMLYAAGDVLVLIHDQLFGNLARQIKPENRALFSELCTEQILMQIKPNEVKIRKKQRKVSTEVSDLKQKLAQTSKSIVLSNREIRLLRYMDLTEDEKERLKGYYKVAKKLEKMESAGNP
# [2] = molecular target: T1, GST-Egl512-819; assay: competition; vs FAM-K10 TLS; FA: 20 mM HEPES-NaOH pH 7.5, 100 mM NaCl, 10% glycerol, 20 C, 10 nM FAM-RNA; competition: 150 nM Egl512-819 + 10 nM FAM-K10 TLS, same buffer; settings: protein: recombinant, tags: N-terminal GST (TEV site)
# [3] = molecular target: T1, GST-Egl512-819; assay: competition; vs FAM-K10 TLS; none at 40,000-fold excess; FA: 20 mM HEPES-NaOH pH 7.5, 100 mM NaCl, 10% glycerol, 20 C, 10 nM FAM-RNA; competition: 150 nM Egl512-819 + 10 nM FAM-K10 TLS, same buffer; settings: protein: recombinant; tags: N-terminal GST (TEV site)
# [4] = molecular target: T1, GST-Egl512-819; assay: fluorescence anisotropy; listed as K10-10nt; FA: 20 mM HEPES-NaOH pH 7.5, 100 mM NaCl, 10% glycerol, 20 C, 10 nM FAM-RNA; competition: 150 nM Egl512-819 + 10 nM FAM-K10 TLS, same buffer; settings: protein: recombinant; tags: N-terminal GST (TEV site); label: 5'-FAM in direct assay; hairpin, 3' overhang 10 nt
# [5] = label: 5'-FAM in direct assay, hairpin
binder,measurement,setting,value
CUUGAUUGUAUUUUUAAAUUAAUUCUUAAAAAUACAAUUAAG (structured_RNA) [K10-Delta b1b2],Kd,[1]; [5],172 ± 18 nM
bcd_VbL (structured_RNA) RNA: GGGCCCAAAAUGAAAAAUGUUUCUCUUGGGCGUAAUCUCAUACAAUGAUUACCCUUAAAGAUCGAACAUUUAAACAAUAAUAUUUGGG,IC50,[2]; [5],31 ± 5 nM
same,Kd,[1]; [5],123 ± 13 nM
AGGCAGTTTCTGGTACTCAG (ssDNA) [ssDNA],binding result,[3],no binding
ACAUGAGGAUUACCCAUGU (structured_RNA) [MS2 stem loop],IC50,[2]; hairpin,142 ± 13 nM
ARF1 dsRNA (dsRNA) RNA 1: UGAGUGCCAGAAGCUGCCUC RNA 2: GAGGCAGUUUCUGGUACUCA,IC50,"[2]; blunt, with G-U wobbles",102 ± 14 nM
GGCUUGAUUGUAUUUUUAAAUUAAUUCUUAAAAACUACAAAUUAAGCC (structured_RNA) [K10-2GC],IC50,[2]; hairpin with two bulges,57 ± 6 nM
dsDNA (dsDNA) DNA 1: AGGCAGTTTCTGGTACTCAG DNA 2: CTGAGTACCAGAAACTGCCT,IC50,[2]; blunt,8890 ± 933 nM
K10-flank (K10-10nt) (structured_RNA) RNA: CUUGAUUGUAUUUUUAAAUUAAUUCUUAAAAACUACAAAUUAAGAUCACUCUGU,IC50,"[2]; label: 5'-FAM in direct assay, hairpin, 3' overhang 10 nt",53 ± 2 nM
same,Kd,[4],92 ± 13 nM
CUUGAUUGUACUUUUUAAAUUAAUUCUUAAAAAUACAAAUUAAG (structured_RNA) [K10-b1as],IC50,[2]; hairpin,63 ± 1 nM
AUUGAUUGUACUUUUUAAAUUAAUUCUUAAAAAUACAAAUUAAU (structured_RNA) [K10-b1as-AU],IC50,[2]; hairpin,87 ± 8 nM
CUUGAUUGUAUUUUUAAAUUAAUUCUUAAAAACUACAAAUUAAG (structured_RNA) [K10 TLS (unlabeled)],IC50,[2]; hairpin with two bulges,53 ± 4 nM
AUUGAUUGUAUUUUUAAAUUAAUUCUUAAAAACUACAAAUUAAU (structured_RNA) [K10-AU],IC50,[2]; hairpin,67 ± 4 nM
AUAUAUAUAUAUAUAUAUAU (ssRNA) [ssRNA (AU20)],Kd,[1]; label: 5'-FAM,137 ± 8 nM
UUUUUUUUUUUUUUUUUUUU (ssRNA) [ssRNA (U20)],Kd,[1]; label: 5'-FAM,175 ± 3 nM
dsRNA (dsRNA) RNA 1: UGAGUGCCAGAAGCUGCCUC RNA 2: GAGGCAGCUUCUGGCACUCA,Kd,[1]; blunt,192 ± 7 nM
GAAUUAAACAUCAAAAAUUCUUAAUUAAAUUUUUAUGUUAGUUC (structured_RNA) [K10-as],Kd,[1]; [5],102 ± 6 nM
bcd_VbS (structured_RNA) RNA: AAAUGUUUCUCUUGGGCGUAAUCUCAUACAAUGAUUACCCUUAAAGAUCGAACAUUU,Kd,"[1]; label: 5'-FAM, hairpin",158 ± 8 nM
